In the assay the target is T1, ACE2-ECD-sFc fusion protein (Homo sapiens).
T1 construct: also called ACE2-sFc; ACE ECD-sFc
The assay can be described thus: ELISA, plate coated with ACE2 ECD-sFc.

B1: HRP alone (enzyme, UniProt P00433 31-338, looked up)
chain: QLTPTFYDNSCPNVSNIVRDTIVNELRSDPRIAASILRLHFHDCFVNGCDASILLDNTTSFRTEKDAFGNANSARGFPVIDRMKAAVESACPRTVSCADLLTIAAQQSVTLAGGPSWRVPLGRRDSLQAFLDLANANLPAPFFTLPQLKDSFRNVGLNRSSDLVALSGGHTFGKNQCRFIMDRLYNFSNTGLPDPTLNTTYLQTLRGLCPLNGNLSALVDFDLRTPTIFDNKYYVNLEEQKGLIQSDQELFSSPNATDTIPLVRSFANSTQTFFNAFVEAMDRMGNITPLTGTQGQIRLNCRVVNSNS
notes: also called HPR alone; control tracer
On to B1, for which the binding result was “no binding”.

The values above are taken from patent publication US20230109393A1 (UNITED BIOMEDICAL, published 2023).
